The record followed here is doi:10.1101/2024.12.20.629688.

The target of experiment [1] is myristoylated human Arf1, GTP-bound form, anchored on membrane (nanodiscs or LUVs) (human) (UniProt P84077).
Experiment [2] shares this target. The experiment can be described thus: not stated; binding of the K391A mutant, shown in Fig. SI5.
The target is the same in experiment [3]. The source holds these as a separate data set.
In experiment [4] the target is myrArf1 with Glu54 mutated to Ala (human) (UniProt P84077).
Sequence of myrArf1 with Glu54 mutated to Ala (human) (P84077 other isoform, or with tags, fused parts or gaps, change not shown): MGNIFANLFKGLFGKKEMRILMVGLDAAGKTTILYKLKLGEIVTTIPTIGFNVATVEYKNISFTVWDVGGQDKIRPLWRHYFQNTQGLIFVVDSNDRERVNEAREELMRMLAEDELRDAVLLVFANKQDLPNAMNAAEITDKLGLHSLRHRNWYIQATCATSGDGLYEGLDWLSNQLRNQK

Sequence of myristoylated human Arf1, GTP-bound form, anchored on membrane (nanodiscs or LUVs) (human) (P84077 whole entry): as the sequence (P84077 other isoform, or with tags, fused parts or gaps, change not shown) above, with A54E counted along it
Sequence of PZA with Lys391 mutated to Ala (Q9QWY8 other isoform, or with tags, fused parts or gaps, change not shown): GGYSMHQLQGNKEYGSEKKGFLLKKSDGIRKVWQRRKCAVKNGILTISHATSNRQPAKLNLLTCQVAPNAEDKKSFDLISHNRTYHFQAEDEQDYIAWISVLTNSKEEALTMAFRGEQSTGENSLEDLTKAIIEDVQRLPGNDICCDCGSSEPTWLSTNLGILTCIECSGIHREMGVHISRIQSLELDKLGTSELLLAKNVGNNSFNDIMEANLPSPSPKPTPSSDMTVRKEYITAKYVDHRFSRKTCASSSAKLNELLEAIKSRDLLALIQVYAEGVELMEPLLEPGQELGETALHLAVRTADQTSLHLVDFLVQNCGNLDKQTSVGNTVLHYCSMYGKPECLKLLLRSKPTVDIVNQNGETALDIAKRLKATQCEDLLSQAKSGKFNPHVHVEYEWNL
Sequence of PZA with His405 mutated to Glu (Q9QWY8 other isoform, or with tags, fused parts or gaps, change not shown): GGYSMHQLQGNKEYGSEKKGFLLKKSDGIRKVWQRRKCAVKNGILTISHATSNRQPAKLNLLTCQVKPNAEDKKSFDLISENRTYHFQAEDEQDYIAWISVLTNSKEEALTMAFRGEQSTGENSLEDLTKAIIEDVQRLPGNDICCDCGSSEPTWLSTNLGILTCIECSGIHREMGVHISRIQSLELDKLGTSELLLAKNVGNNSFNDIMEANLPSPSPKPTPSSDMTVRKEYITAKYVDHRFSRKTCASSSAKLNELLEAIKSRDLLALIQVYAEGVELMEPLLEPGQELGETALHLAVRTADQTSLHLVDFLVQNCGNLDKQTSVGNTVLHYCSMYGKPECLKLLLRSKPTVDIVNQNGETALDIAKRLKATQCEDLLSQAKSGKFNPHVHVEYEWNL
Sequence of ΔN14 PZA (PZA without residues 325–338) (Q9QWY8 339-724, stated change not applied): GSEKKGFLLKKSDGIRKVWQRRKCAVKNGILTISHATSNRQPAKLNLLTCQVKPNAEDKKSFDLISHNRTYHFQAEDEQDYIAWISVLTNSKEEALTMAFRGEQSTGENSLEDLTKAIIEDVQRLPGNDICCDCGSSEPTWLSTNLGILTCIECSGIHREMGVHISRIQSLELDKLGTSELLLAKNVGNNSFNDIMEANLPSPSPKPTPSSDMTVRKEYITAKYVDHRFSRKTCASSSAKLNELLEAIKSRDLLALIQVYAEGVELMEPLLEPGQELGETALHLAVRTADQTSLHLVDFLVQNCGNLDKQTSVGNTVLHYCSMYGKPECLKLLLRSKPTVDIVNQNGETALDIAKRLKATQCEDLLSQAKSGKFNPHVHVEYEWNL
Sequence of PZA with Phe438 mutated to Ala (Q9QWY8 other isoform, or with tags, fused parts or gaps, change not shown): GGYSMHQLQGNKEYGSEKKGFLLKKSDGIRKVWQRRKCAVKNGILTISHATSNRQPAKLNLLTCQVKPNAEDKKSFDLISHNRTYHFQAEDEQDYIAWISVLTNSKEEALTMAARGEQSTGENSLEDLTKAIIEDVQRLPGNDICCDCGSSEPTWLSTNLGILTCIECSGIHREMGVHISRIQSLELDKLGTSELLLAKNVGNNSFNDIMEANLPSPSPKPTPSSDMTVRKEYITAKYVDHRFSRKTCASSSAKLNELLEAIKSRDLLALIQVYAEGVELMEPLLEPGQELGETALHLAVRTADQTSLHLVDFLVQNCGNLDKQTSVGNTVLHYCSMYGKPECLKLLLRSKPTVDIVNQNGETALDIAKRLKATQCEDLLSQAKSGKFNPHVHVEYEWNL
Sequence of wt PZA, [325–724]ASAP1 (PH, Arf GAP and ankyrin repeat domains) (Q9QWY8 325-724): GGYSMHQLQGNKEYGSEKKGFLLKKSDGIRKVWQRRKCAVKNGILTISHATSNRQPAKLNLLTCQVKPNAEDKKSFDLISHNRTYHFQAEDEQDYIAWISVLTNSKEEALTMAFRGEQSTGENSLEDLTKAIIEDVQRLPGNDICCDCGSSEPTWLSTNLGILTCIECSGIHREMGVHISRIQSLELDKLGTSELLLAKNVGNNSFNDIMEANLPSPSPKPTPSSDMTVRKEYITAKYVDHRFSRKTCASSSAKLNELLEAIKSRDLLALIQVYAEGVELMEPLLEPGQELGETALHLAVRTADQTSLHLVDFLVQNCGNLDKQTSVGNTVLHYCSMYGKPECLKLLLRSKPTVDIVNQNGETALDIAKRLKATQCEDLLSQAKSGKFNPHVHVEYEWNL

For “ΔN14 PZA (PZA without residues 325–338) (from UniProt Q9QWY8 339-724) (domain or fragment)”, the GAP activity relative to wt PZA (fold of wt PZA) in experiment [1] was < 0.01. In experiment [2], “ASAP1 PH domain with Lys391 mutated to Ala (from UniProt Q9QWY8 325-451) (domain or fragment)” gave a fold reduction of binding against wild type of 2 fold.

“PZA with Lys391 mutated to Ala (from UniProt Q9QWY8 325-724) (domain or fragment)” had an ArfGAP activity (C50: concentration of PZA for 50% GTP hydrolysis in 3 min), fold reduction against wild type in experiment [3] of 100 fold. Substance “PZA with Phe438 mutated to Ala (from UniProt Q9QWY8 325-724) (domain or fragment)” showed an ArfGAP activity (C50: concentration of PZA for 50% GTP hydrolysis in 3 min), fold reduction against wild type in experiment [3] of 15 fold. Consider “PZA with His405 mutated to Glu (from UniProt Q9QWY8 325-724) (domain or fragment)”, for which the ArfGAP activity (C50: concentration of PZA for 50% GTP hydrolysis in 3 min), fold reduction against wild type in experiment [3] worked out at 5 fold. In experiment [4], “wt PZA, [325–724]ASAP1 (PH, Arf GAP and ankyrin repeat domains) (from UniProt Q9QWY8 325-724) (domain or fragment)” yielded an ArfGAP activity (C50: concentration of PZA for 50% GTP hydrolysis in 3 min), fold reduction against wild type of 70 fold.
